Experimental data reported in US20240147984A1 (SYNKLINO A S, published 2024).

How the values were obtained:
Test in all cases: cell-based or functional assay
US28 [1] = target: T1, US28 (human cytomegalovirus, UniProt P69332 1-354)
T1 sequence: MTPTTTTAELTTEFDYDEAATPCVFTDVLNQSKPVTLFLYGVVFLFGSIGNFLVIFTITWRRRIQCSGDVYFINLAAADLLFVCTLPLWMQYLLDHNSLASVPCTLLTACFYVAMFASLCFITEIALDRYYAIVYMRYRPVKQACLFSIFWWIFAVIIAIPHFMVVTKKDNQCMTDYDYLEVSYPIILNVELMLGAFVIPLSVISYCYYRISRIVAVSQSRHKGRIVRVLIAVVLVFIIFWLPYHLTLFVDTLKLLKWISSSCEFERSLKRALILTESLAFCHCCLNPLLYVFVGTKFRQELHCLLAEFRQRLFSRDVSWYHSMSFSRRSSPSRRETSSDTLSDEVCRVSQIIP

CX3CR1 = target: T2, CX3CR1 (human, UniProt P49238 1-355)
T2 sequence: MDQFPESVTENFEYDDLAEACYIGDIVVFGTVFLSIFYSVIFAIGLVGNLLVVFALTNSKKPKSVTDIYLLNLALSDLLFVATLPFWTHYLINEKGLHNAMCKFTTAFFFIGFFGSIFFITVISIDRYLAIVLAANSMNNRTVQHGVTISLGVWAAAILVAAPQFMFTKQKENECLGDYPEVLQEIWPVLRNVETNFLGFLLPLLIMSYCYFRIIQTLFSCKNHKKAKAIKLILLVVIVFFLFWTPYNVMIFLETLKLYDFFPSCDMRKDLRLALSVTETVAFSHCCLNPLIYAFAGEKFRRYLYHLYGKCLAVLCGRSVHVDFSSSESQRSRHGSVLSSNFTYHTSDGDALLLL

US28 [2] = target: T1, US28; remark: listed apart in the source

B1: SYN001 (other)
chain: MQHHGVTKCNITCSKMTSKIPVALLIHYQQNQASCGKRAIILETRQHRLACADPKEQWVKDAMQHLDRQAAALTRNRQPRGWEQLEQSGYPVQRLVALYLAARLSWNQVDQVIRNALASPGSGGDLGEAIREQPEQARLALTLAAAESERFVRQGTGNDEAGAASGPADSGDALLERNYPTGAEFLGDGGDISFSTRGTQNWTVERLLQAHRQLEERGYVFVGYHGTFLEAAQSIVFGGVRARSQDLDAIWRGFYIAGDPALAYGYAQDQEPDARGRIRNGALLRVYVPRSSLPGFYRTGLTLAAPEAAGEVERLIGHPLPLRLDAITGPEEEGGRLETILGWPLAERTVVIPSAIPTDPRNVGGDLDPSSIPDKEQAISALPDYASQPGKPPKDE
B1 was tested. Which “Log IC50, cell killing assay” value (US28 [1]) did it give?
The value was -10.7 log IC50; concentration unit not printed.

What about the “Selectivity Ratio US28/CX3CR1 (cell killing IC50)” value (US28 [1]) of the same binder?
The value was 718 ratio.

What about the “Log IC50, cell killing assay” value (CX3CR1) of the same binder?
Its value is -7.82 log IC50; concentration unit not printed.

And the “EC50 (log), potency assay; SYN001 1 mg/L, 0 min in perfusate at 37 C” value (US28 [2])?
Its value is -9.95 log EC50; concentration unit not printed.

And the “EC50 (log), potency assay; SYN001 1 mg/L, 15 min in perfusate at 37 C” value (US28 [2])?
Its value is -9.95 log EC50; concentration unit not printed.

And the “EC50 (log), potency assay; SYN001 1 mg/L, 180 min in perfusate at 37 C” value (US28 [2])?
The value was -10 log EC50; concentration unit not printed.

And the “EC50 (log), potency assay; SYN001 1 mg/L, 300 min in perfusate at 37 C” value (US28 [2])?
Its value is -9.93 log EC50; concentration unit not printed.
